Reference: patent US20220411514A1 (published 2022)
Substitutions are numbered along the chain they refer to.

B1: 15F10.2D6 (antibody, V domains shown)
VH: EVQLVESGGGLVKPGGSLKLSCAASGFAFSSYAMSWVRQTPEKRLEWVATISDGGVYTYYTDHVKGRFTISRDNAEDNLYLQMSHLKSEDTAMYYCVRDGGYWGQGTTLTVSS
VL: DVLMTQTPLSLPVSLGDQASISCRSSQSIVHNNGNTYLEWYLQKPGQSPKLLIYKVSNRFSGVPDRFSGSGSGTDFTLKISRVEAEDLGVYYCFQGSHVPLTFGGGTKLELKR
B2: 7D8.2D8 (antibody, V domains shown)
VH: B1 VH with A28T, V56I, T61P, H63N, E76K, D77N, Y80F
VL: B1 VL with N32S, G105A
B3: IMT-006 (antibody, V domains shown)
VH: QVQLVQSGAEVKKPGASVKVSCKASGYSFTNYYMHWVRQAPGQRLEWMGWIYPGSGNTNYNEKFQGRVTITADTSASTAYMELSSLRSEDTAVYYCSTAPGGFDVWGQGTTVTVSS
VL: DIVMTQTPLSLSVTPGQPASISCKSSKSLLHSDGITYLYWYLQKPGQSPQLLIYRMSNLASGVPDRFSGSGSGTDFTLKISRVEAEDVGVYYCAQMLEFPLTFGQGTKLEIKR
B4: 3B11.2G2 (antibody, V domains shown)
VH: QIQLVQSGPELKKPGETVKISCKTSGYKFKTYVMSWVKQAPGKALKWMGWINTYSGVPTYADDFKGRFAFSLETSASTAYLEIINLKNEDTATYFCARDGNYGDPMDYWGQGTSVTVSS
VL: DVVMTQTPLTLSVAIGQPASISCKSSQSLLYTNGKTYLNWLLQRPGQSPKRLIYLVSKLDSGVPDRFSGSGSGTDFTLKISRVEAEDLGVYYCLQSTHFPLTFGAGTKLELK
B5: 15G7.2A7 (antibody, V domains shown)
VH: EVQLQQSGPELVKPGASVKISCKASGYTFTDYYMNWVKQSHGKSLEWIGDINPNNGGTNYNQKFKGKATLTVDKSSSTAYMELRSLTSEDSAVYYCTSGYGFPYWGQGTLVTVSA
VL: DIQMNQSPSSLSASLGDTISITCRASQNINIWLSWYQQKPGNIPQLLIYKASNLHTGVPSRFSGSGSGTDFTLTISSLQPEDIATYYCLQGQSYPLTFGAGTKLVMKR
B6: 6H6.2D6 (antibody, V domains shown)
VH: QIQLVQSGPELKKPGETVKISCKASGYTFTTYGMSWVKQAPGKGLKWMAWINTYSGVPTYADDFKGRFAFSLETSASTAYLQINNLTNEDTATYFCARGPYAMDYWGQGTSVTVSS
VL: DIQMTQTTSSLSASLGDRVTISCSASQGISNYLNWYQQKPDGTVKLLIYYTSSLHSGVPSRFSGSGSGTDYSLTISNLEPEDIATYYCQQYSELPYTFGSGTKLEIKR
B7: 19B5.2E6 (antibody, V domains shown)
VH: B6 VH with G33A, A49G, F64L, T87K
VL: B6 VL with S30N, T51A, E93Q, L94V
B8: 23H9.2E4 (antibody, V domains shown)
VH: B6 VH with G33A, A49G, F64L, T87K
VL: DIQMTQTTSSLSASLGDRVTISCSASQGINNYLNWYQQKPDGTVKLLIYYASSLHSGVPSRFSGSGSGTDYSLTISNLEPEDIATYYCQQYSQVPYTFGSGTKLEIK
B9: IMT-001 (antibody, V domains shown)
VH: QVQLVQSGSELKKPGASVKVSCKASGYTFTNYGMNWVRQAPGQGLKWMGWINTNTGEPTYVEEFTGRFVFSLETSVSTAYLQISSLKAEDTAVYFCAPYDNFFAYWGQGTTVTVSS
VL: DIVLTQSPLSLPVTPGEPASISCRSSKSLLYKDGKTYLNWFLQKPGQSPQLLIYLMSTHASGVPDRFSGSGSGTDFTLKISRVEAEDVGVYYCQQLVDYPLTFGGGTKLEIKR
B10: 9H2.2H10 (antibody, V domains shown)
VH: QVQLQQPGAELVGPGSSVKLSCKASGYTFTNYWIHWVKQRPLQGLEWIGNIDPSDSETHYNQKFKDKATLTVDKSSSTAYMQLSSLTSEDSAVYYCARHGYYDYWGQGTTLTVSS
VL: DIVMTQSHKFMSTSVGDRVSITCKASQDVSTAVAWYQQKPGQSPKLLIYWASTRHTGVPDRFTGSGSGTDYTLTISSVQAEDLALYYCQQHYTTPLTFGAGTKLELKR
B11: 4A11.2B5 (antibody, V domains shown)
VH: QVQLQQSGPELVKPGASVKISCKASGYSFTNYYIHWVKQRPGQGLEWIGWIYPGSGNTNYNEKFKGKATLTADTSSSTTNMQLSSLTSEDSAVYYCSTAPGGFDVWGSGTTVTVSS
VL: DIVMTQAAFSNPVTLGTSASISCRSSKSLLHSDGITYLYWYLQRPGQSPQLLIYRMSNLASGVPDRFSGSGSGTDFTLRISRVEAEDVGVYYCAQMLEFPLTFGAGTKLELKR
B12: 4G2.2G6 (antibody, V domains shown)
VH: QIQLVQSGPDLKKPGETVKISCKASGYTFTTYVMSWVKQAPGKDLKWMGWINTHSGVPTYADDFKGRFDFSLETSANTAFLQINNLKNEDTATYFCTRDGNDGDAMDNWGQGTSVTVSS
VL: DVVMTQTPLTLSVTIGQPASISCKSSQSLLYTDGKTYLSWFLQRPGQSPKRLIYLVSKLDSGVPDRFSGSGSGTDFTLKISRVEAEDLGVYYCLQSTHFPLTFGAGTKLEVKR
B13: 13G4.2F8 (antibody, V domains shown)
VH: QVQLQQPGAELVKPGASVKLSCKASGYTFTSYWMHWVKQRPGQGLEWIGMIHPNSGSTDYNEKFKNKATLNVDKSSSTAYIQLSSLTSEDSAVYYCTRWGIYYYARDYWGQGTTLTVSS
VL: DIVMTQSQKFMSTSVGERVSITCKASQNVGTNVAWYQQKAGQSLELLIYGASNRHTGVPDRFTGSGSGTDFTLTITNVQSEDMTNYFCEQYSNFPLTFGAGTKLELKR
B14: 19D9.2E5 (antibody)
chain 1: QIQLVQSGPELKKPGETVKISCKASGYTFTTYGMGWVKQAPGKGLKWMGWINTYSGVPTYADDFKGRFAFSLETSTSTAYLQINNLKNEDMATYFCATPYEYDGAYWGQGTLVTVSA
chain 2: not shown

Biological target: hGal-3 (UniProt P17931 2-250)
Experiment: SPR

Chain of hGal-3 (P17931 2-250): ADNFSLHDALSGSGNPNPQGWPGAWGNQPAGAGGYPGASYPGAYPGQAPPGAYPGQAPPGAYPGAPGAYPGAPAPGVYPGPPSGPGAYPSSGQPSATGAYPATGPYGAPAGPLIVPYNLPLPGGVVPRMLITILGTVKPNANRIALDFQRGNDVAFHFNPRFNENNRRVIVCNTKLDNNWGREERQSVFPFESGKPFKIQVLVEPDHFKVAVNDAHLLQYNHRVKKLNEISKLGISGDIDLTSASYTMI

Kd [nM] | Binder
2.06 | B1
2.49 | B2
16.5 | B3
< 1 | B4
11.3 | B5
4.86 | B6
< 1 | B7
4.26 | B8
6.09 | B9
18.4 | B10
5.22 | B11
< 1 | B12
2.53 | B13
< 1 | B14
